# Data taken from article doi:10.1101/207928.
# Molecular target: glycosylated full-length human insulin receptor isoform A (human) (UniProt P06213)
# Assay: negative-stain electron microscopy
substance,measurement,value
glycosylated full-length human insulin receptor isoform A (from UniProt P06213-2 28-1370),stoichiometry N,2
